Sequences and labels used below:
B1: CPEB3 Ribozyme (parent)
chain: UAACAGGGGGCCACAGCAGAAGCGUUCACGUCGCAGCCCCUGUCAGAUUCUGGUGAAUCUGCGAAUUCUGCUGUAUAUCUC

The text below walks through data of the RNAGym collection of RNA variant scans (doi:10.1093/nar/gkz1192).

The variants in this data set derive from B1. The experiment in a line: self-cleavage, relative activity (ratio to wild type); higher = more cleavage; in vitro, sequencing. The method, boiled down:
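After error-prone PCR and barcoding, CPEB3 ribozyme mutant libraries were transcribed with T7 RNA polymerase at 37°C for 5 hours, then given 15 min with DNase I before an EDTA stop, and they cleaved during both steps. Reverse transcription with template switching preceded Illumina sequencing. Relative activity divides a variant's cleaved/total read fraction by the unmutated ribozyme's. At least 5 reads were required per variant, and three batches were averaged.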
Turning to C44G U76C, the self-cleavage worked out at 0.58.

As for U43A U72A, the self-cleavage is 0.71.

Take U43A U72G: the self-cleavage came to 1.02.

U43A U72C: the self-cleavage was determined as 1.17.

Consider C44A U54A, for which the self-cleavage amounted to 0.59.

Regarding C44A U54C, the self-cleavage came out at 0.36.

Turning to G42A U58A, the self-cleavage was determined as 0.21.

In the case of G42A U58C, the self-cleavage turned out to be 0.25.

Consider U43C C62G, for which the self-cleavage came out at 0.21.

For the variant U43C C62A, the self-cleavage is 0.31.

As for U43C C62U, the self-cleavage was determined as 0.3.

In the case of U43G A77G, the self-cleavage stood at 0.22.

For the variant U43C C50A, the self-cleavage was found to be 0.31.

On to U43C C50U, for which the self-cleavage came out at 0.24.

On to U43C G63C, for which the self-cleavage worked out at 0.3.

U43C G63A: the self-cleavage worked out at 0.47.

Regarding U43G U74G, the self-cleavage turned out to be 0.36.

Turning to U43G U74A, the self-cleavage is 0.11.

For the variant U43C A64G, the self-cleavage worked out at 0.51.

For the variant U43C A64U, the self-cleavage was determined as 0.29.

With U43G A56U, the self-cleavage worked out at 0.36.

Regarding U43G A56G, the self-cleavage is 0.23.

As for C44A A65G, the self-cleavage was found to be 0.2.

For U43A A75G, the self-cleavage is 1.01.

U43A A75C: the self-cleavage is 1.36.

As to U43A A75U, the self-cleavage was found to be 1.19.

Consider C44A U78A, for which the self-cleavage is 0.49.

Consider C44A U78C, for which the self-cleavage amounted to 0.38.

For U43C C44U, the self-cleavage is 0.38.

For U43C C44G, the self-cleavage amounted to 0.09.

As to U43A C44U, the self-cleavage turned out to be 1.11.

For U43G A57G, the self-cleavage stood at 0.21.

Regarding G42U U69G, the self-cleavage was determined as 0.14.

G42A U60C: the self-cleavage was determined as 0.34.

Turning to G42A U60A, the self-cleavage amounted to 0.3.

For the variant G42U U49C, the self-cleavage worked out at 0.02.

Consider U43C G46C, for which the self-cleavage was found to be 0.16.

Regarding U43C G46A, the self-cleavage stood at 0.22.

Turning to U43C G46U, the self-cleavage was found to be 0.16.

Regarding U43A C59G, the self-cleavage was 0.41.

Turning to G42A C81U, the self-cleavage was 0.4.

Take G42A C81G: the self-cleavage was determined as 0.35.

With G42U A56U, the self-cleavage worked out at 0.48.

Consider G42U A56G, for which the self-cleavage came to 0.49.

Take G42U U80C: the self-cleavage is 0.51.

Regarding U43C U69G, the self-cleavage was found to be 0.43.

For the variant U43C U69A, the self-cleavage was determined as 0.32.

Turning to U43C U69C, the self-cleavage turned out to be 0.31.

Turning to U43A U69C, the self-cleavage stood at 0.72.

On to U43A U69G, for which the self-cleavage was 0.82.

On to U43A U69A, for which the self-cleavage is 0.79.

For the variant U43A U67C, the self-cleavage came to 0.33.

U43A U67A: the self-cleavage is 0.83.

For the variant U43A A65G, the self-cleavage is 0.93.

For U43A A65U, the self-cleavage was determined as 0.57.

On to G42A U49A, for which the self-cleavage was determined as 0.21.

For C44G U67C, the self-cleavage worked out at 0.18.

Turning to U43C C71U, the self-cleavage came to 0.36.

U43C C71A: the self-cleavage is 0.36.

On to U43C C71G, for which the self-cleavage was 0.28.

Turning to U43C A45G, the self-cleavage came out at 0.5.

Consider U43C A45U, for which the self-cleavage was determined as 0.3.

For the variant U43C A45C, the self-cleavage was determined as 0.3.

For G42A A65G, the self-cleavage worked out at 0.42.

Regarding G42A A65U, the self-cleavage came out at 0.3.

For G42A A65C, the self-cleavage was 0.24.

On to U43C G52C, for which the self-cleavage came to 0.77.

On to U43C G52U, for which the self-cleavage turned out to be 1.06.

For U43C G52A, the self-cleavage is 0.92.

In the case of U43A U58G, the self-cleavage stood at 0.31.

Regarding U43A U58A, the self-cleavage stood at 0.72.

In the case of U43A U58C, the self-cleavage amounted to 0.67.

G42A A64U: the self-cleavage was found to be 0.14.

Turning to G42A A64G, the self-cleavage was determined as 0.21.

For U43C G53C, the self-cleavage amounted to 0.88.

Consider U43C G53A, for which the self-cleavage worked out at 0.87.

Take U43C G53U: the self-cleavage came out at 0.6.

For G42A A57U, the self-cleavage turned out to be 0.18.

On to U43A G52C, for which the self-cleavage was determined as 1.19.

For the variant U43A G52A, the self-cleavage stood at 1.23.

Take U43A G52U: the self-cleavage amounted to 1.26.

U43A U49G: the self-cleavage was determined as 0.52.

Consider U43A U49C, for which the self-cleavage turned out to be 0.53.

With U43A U49A, the self-cleavage was 0.8.

For U43G U58C, the self-cleavage was 0.14.

As to U43G U72A, the self-cleavage amounted to 0.1.

U43G U72G: the self-cleavage was 0.17.

As to U43G U72C, the self-cleavage worked out at 0.33.

Take G42U U43C: the self-cleavage came out at 0.43.

G42U U43A: the self-cleavage was found to be 0.54.

With G42A U80A, the self-cleavage was 0.79.

For G42A U80C, the self-cleavage is 0.36.

U43C C68U: the self-cleavage worked out at 0.32.

In the case of U43C C68A, the self-cleavage came to 0.28.

For U43C C68G, the self-cleavage is 0.11.

Regarding G42A C79A, the self-cleavage was determined as 0.33.

As to G42A C79U, the self-cleavage came out at 0.36.

For C44A U74C, the self-cleavage is 0.63.

Regarding U43C A57G, the self-cleavage came to 0.3.

As for U43C A57U, the self-cleavage worked out at 0.22.

With G42A U72A, the self-cleavage turned out to be 0.18.

For G42A U72C, the self-cleavage was 0.37.

Take U43G C81U: the self-cleavage is 0.08.

Regarding C44A U76C, the self-cleavage amounted to 0.37.

G42A C44G: the self-cleavage was found to be 0.11.

As to U43A U54C, the self-cleavage was 1.19.

In the case of U43A U54A, the self-cleavage was 1.25.

As for U43G C62U, the self-cleavage amounted to 0.26.

With U43G C62G, the self-cleavage is 0.43.

On to U43A C79A, for which the self-cleavage was found to be 1.22.

For the variant U43C G73A, the self-cleavage came out at 1.13.

With U43C G73C, the self-cleavage was 1.19.

Regarding U43C G73U, the self-cleavage was 1.2.

Turning to C44G C68A, the self-cleavage stood at 0.3.

As for C44G U80A, the self-cleavage turned out to be 0.52.

Turning to C44A A77G, the self-cleavage came to 0.43.

Regarding G42U A47G, the self-cleavage came to 0.18.

Take G42U U60A: the self-cleavage is 0.21.

On to G42U U60C, for which the self-cleavage turned out to be 0.17.

Consider U43G U78C, for which the self-cleavage amounted to 0.28.

For the variant C44G A56G, the self-cleavage was found to be 0.44.

With C44A A64C, the self-cleavage worked out at 0.18.

For the variant C44A A64G, the self-cleavage is 0.49.

C44G U74C: the self-cleavage was 1.02.

On to C44G U74A, for which the self-cleavage came to 1.18.

For the variant C44A A56U, the self-cleavage was determined as 0.21.

As to G42A U67A, the self-cleavage was determined as 0.14.

With G42A U67C, the self-cleavage was found to be 0.21.

For G42C U60C, the self-cleavage turned out to be 0.24.

For the variant U43G U60C, the self-cleavage is 0.13.

As to U43G U60A, the self-cleavage turned out to be 0.15.

As to G42C A57G, the self-cleavage stood at 0.25.

As for G42U U67C, the self-cleavage turned out to be 0.08.

Regarding U43C A77U, the self-cleavage was determined as 0.78.

As for U43C A77G, the self-cleavage came out at 0.58.

For the variant G42U U76C, the self-cleavage came out at 0.93.

Regarding U43A U51C, the self-cleavage worked out at 0.88.

In the case of U43A U51A, the self-cleavage worked out at 0.97.

On to U43A U51G, for which the self-cleavage was found to be 1.15.

U43G U49C: the self-cleavage is 0.28.

For G42A G70C, the self-cleavage came to 0.13.

As to G42A G70A, the self-cleavage was 0.19.

As for U43C A75G, the self-cleavage amounted to 0.39.

With U43C A75C, the self-cleavage came to 0.84.

As to U43C A75U, the self-cleavage stood at 0.62.

Consider G42U U66A, for which the self-cleavage came to 0.26.

Turning to G42U U66C, the self-cleavage was found to be 0.48.

Take G42U U66G: the self-cleavage stood at 0.32.

Take U43C A56C: the self-cleavage came out at 0.18.

For the variant U43C A56G, the self-cleavage is 0.33.

U43C A56U: the self-cleavage is 0.26.

As for G42A U66C, the self-cleavage came out at 0.38.

U43A C50A: the self-cleavage came out at 1.07.

On to C44G G63A, for which the self-cleavage was 0.65.

As for C44A U51A, the self-cleavage is 0.11.

In the case of U43A G53A, the self-cleavage is 1.2.

As for U43C U80C, the self-cleavage was 0.68.

As for U43C U80G, the self-cleavage came to 1.01.

For U43C U80A, the self-cleavage came to 0.73.

Consider U43C G61A, for which the self-cleavage was determined as 0.22.

In the case of C44A U80C, the self-cleavage worked out at 0.41.

For G42A G63U, the self-cleavage was 0.35.

With G42C U48A, the self-cleavage turned out to be 0.13.

As to G42A A75G, the self-cleavage was determined as 0.28.

As to U43C U60A, the self-cleavage is 0.27.

In the case of U43C U60G, the self-cleavage stood at 0.3.

Turning to U43C U60C, the self-cleavage turned out to be 0.26.
